This is an account of results in patent US12534748B2, “Engineered beta-subunit of tryptophan synthase for production of non-canonical amino acids” (California Institute of Technology, priority 2015, dated 2026).

Substrate in data set [1]: c1ccc2[nH]ccc2c1
Put plainly: Tryptophan formation from L-serine and indole, kinetics of TmTrpB^T292S. The conditions noted are these: other: 75° C., pH 8.0. It counts as biochemical, Thermotoga maritima. The method, then: (§1) Kinetics and UV-Vis Spectroscopy. Data were collected between 550 and 250 nm on a UV1800 Shimadzu spectrophotometer (Shimadzu) using 0.25-20 μM of enzyme in 200 mM potassium phosphate (pH 8.0) in a quartz cuvette. Samples were incubated at 75° C. for >3 min to ensure a stable temperature was reached. PfTrpB activity (kcat) was measured by monitoring tryptophan formation at 290 nm using Δe290=1.89 mM^−1·cm^−1.
(§2) Cloning, expression, and purification of the different orthologs. The genes encoding AfTrpB (UNIPROT ID O28672), TmTrpB (UNIPROT ID P50909) and EcTrpB (UNIPROT ID P0A879) were obtained from IDT and cloned into pET22(b)+ using Gibson Assembly. Protein expression was carried out in E. coli BL21 E. cloni Express cells (Lucigen) by inoculating 10-mL Terrific Broth (with 100 μg/mL ampicillin (TBamp)) with a single colony and incubated over night at 37° C. and 250 rpm. These overnight cultures were used to scale up to 500-mL TBamp expression cultures, which were grown by shaking at 250 rpm and 37° C. for ˜3 h or until an OD600 of 0.8 was reached. […]
(§3) The next homolog, TmTrpB, was examined. […] The variants without the T292S mutation lacked this probative absorbance peak, but the decrease at 428 nm and concomitant increase at 350 nm are consistent with a similar, though less pronounced activation.

Substrate in data set [2]: c1ccc2[nH]ccc2c1
Put plainly: Tryptophan formation from L-serine and indole, kinetics of wild-type TmTrpB. It counts as biochemical, Thermotoga maritima. The conditions noted are these: other: 75° C., pH 8.0.

Substrate in data set [3]: c1ccc2[nH]ccc2c1
In words: Tryptophan formation from L-serine and indole, kinetics of TmTrpB^triple. Particulars: other: 75° C., pH 8.0. It counts as biochemical, Thermotoga maritima. The method, then: as §1, §2, §3

Substrate in data set [4]: c1ccc2[nH]ccc2c1
In words: Tryptophan formation from L-serine and indole, kinetics of TmTrpS complex. Particulars: other: 75° C., pH 8.0. Format: biochemical, Thermotoga maritima. The method, then:
as §1
as §2, with “reached. Then, after chilling the cultures on ice for 20 min, induction was conducted by the addition of IPTG to a final concentration of 1 mM.” for “reached.”
TmTrpA gene was also obtained from IDT and cloned into pET22(b)+ using Gibson Assembly, but without including the C-terminal His-tag. […] Protein concentrations were determined via the Bradford assay (Bio-Rad).

Substrate in data set [5]: c1ccc2[nH]ccc2c1
Put plainly: Tryptophan formation from L-serine and indole, kinetics of EcTrpB double mutant. It counts as biochemical, Escherichia coli. The conditions noted are these: other: 37° C., pH 8.0. The method, then: (§4) Kinetics and UV-Vis Spectroscopy. Data were collected between 550 and 250 nm on a UV1800 Shimadzu spectrophotometer (Shimadzu) using 0.25-20 μM of enzyme in 200 mM potassium phosphate (pH 8.0) in a quartz cuvette. […] PfTrpB activity (kcat) was measured by monitoring tryptophan formation at 290 nm using Δe290=1.89 mM^−1·cm^−1.
as §2, with “reached. Then, after chilling the cultures on ice for 20 min, induction was conducted by the addition of IPTG to a final concentration of 1 mM. Induced cultures were allowed to grow at 250 rpm and 20° C. for another 20 h. After centrifugation, pelleted cells were frozen and stored at −20° C. until further use.” for “reached.”

Substrate in data set [6]: c1ccc2[nH]ccc2c1
Put plainly: Tryptophan formation from L-serine and indole, kinetics of wild-type AfTrpB. The conditions noted are these: other: 60° C., pH 8.0. It counts as biochemical, Archaeoglobus fulgidus. The method, then: as §4, §2
The three TrpB homologs and their corresponding 0B2 variants were expressed and purified, and then their kinetic properties (kcat and KM of indole) were measured. […] The UV-vis spectra of the enzymes was recorded before and after adding L-serine, relying on the diagnostic spectrum of the PLP cofactor to report the steady state population of the catalytic intermediates.

Substrate in data set [7]: c1ccc2[nH]ccc2c1
Put plainly: Tryptophan formation from L-serine and indole, kinetics of AfTrpB double mutant. Format: biochemical, Archaeoglobus fulgidus. Particulars: other: 60° C., pH 8.0. The method, then: as §4
as §2, with “reached. Then, after chilling the cultures on ice for 20 min, induction was conducted by the addition of IPTG to a final concentration of 1 mM. Induced cultures were allowed to grow at 250 rpm and 20° C. for another 20 h. After centrifugation, pelleted cells were frozen and stored at −20° C. until further use.” for “reached.”

The term Km denotes the substrate concentration at which the rate is half of its maximum.

B1: Thermotoga maritima TrpB variant TmTrpB^T292S, SEQ ID NO: 26 (Thermotoga maritima MSB8; T292S) (protein)
chain: MKGYFGPYGGQYVPEILMPALEELEAAYEEIMKDESFWKEFNDLLRDYAGRPTPLYFARRLSEKYGARIYLKREDLLHTGAHKINNAIGQVLLAKKMGKTRIIAETGAGQHGVATATAAALFGMECVIYMGEEDTIRQKPNVERMKLLGAKVVPVKSGSRTLKDAINEALRDWITNLQTTYYVIGSVVGPHPYPIIVRNFQKVIGEETKKQILEKEGRLPDYIVACVGGGSNAAGIFYPFIDSGVKLIGVEAGGEGLETGKHAASLLKGKIGYLHGSKTFVLQDDWGQVQVSHSVSAGLDYSGVGPEHAYWRETGKVLYDAVTDEEALDAFIELSRLEGIIPALESSHALAYLKKINIKGKVVVVNLSGRGDKDLESVLNHPYVRERIRLEHHHHHH
Take B1: the Km in data set [1] turned out to be 25 µM.

B2: Thermotoga maritima tryptophan synthase beta-subunit TmTrpB, wild type, SEQ ID NO: 6 (Thermotoga maritima MSB8) (protein)
chain: MKGYFGPYGGQYVPEILMPALEELEAAYEEIMKDESFWKEFNDLLRDYAGRPTPLYFARRLSEKYGARIYLKREDLLHTGAHKINNAIGQVLLAKKMGKTRIIAETGAGQHGVATATAAALFGMECVIYMGEEDTIRQKPNVERMKLLGAKVVPVKSGSRTLKDAINEALRDWITNLQTTYYVIGSVVGPHPYPIIVRNFQKVIGEETKKQILEKEGRLPDYIVACVGGGSNAAGIFYPFIDSGVKLIGVEAGGEGLETGKHAASLLKGKIGYLHGSKTFVLQDDWGQVQVTHSVSAGLDYSGVGPEHAYWRETGKVLYDAVTDEEALDAFIELSRLEGIIPALESSHALAYLKKINIKGKVVVVNLSGRGDKDLESVLNHPYVRERIRLEHHHHHH
B2: in data set [2], the Michaelis-Menten constant (Km) came to 33 µM.

B3: Thermotoga maritima TrpB variant TmTrpB^triple (P19G, I69V, T292S), SEQ ID NO: 34 (Thermotoga maritima MSB8; I69V/P19G/T292S) (protein)
chain: MKGYFGPYGGQYVPEILMGALEELEAAYEEIMKDESFWKEFNDLLRDYAGRPTPLYFARRLSEKYGARVYLKREDLLHTGAHKINNAIGQVLLAKKMGKTRIIAETGAGQHGVATATAAALFGMECVIYMGEEDTIRQKPNVERMKLLGAKVVPVKSGSRTLKDAINEALRDWITNLQTTYYVIGSVVGPHPYPIIVRNFQKVIGEETKKQILEKEGRLPDYIVACVGGGSNAAGIFYPFIDSGVKLIGVEAGGEGLETGKHAASLLKGKIGYLHGSKTFVLQDDWGQVQVSHSVSAGLDYSGVGPEHAYWRETGKVLYDAVTDEEALDAFIELSRLEGIIPALESSHALAYLKKINIKGKVVVVNLSGRGDKDLESVLNHPYVRERIRLEHHHHHH
Regarding B3, in data set [3], the Km was determined as 26 µM.

B4: Thermotoga maritima tryptophan synthase complex TmTrpS (TmTrpA + TmTrpB) (Thermotoga maritima MSB8) (protein)
chain: MKGYFGPYGGQYVPEILMPALEELEAAYEEIMKDESFWKEFNDLLRDYAGRPTPLYFARRLSEKYGARIYLKREDLLHTGAHKINNAIGQVLLAKKMGKTRIIAETGAGQHGVATATAAALFGMECVIYMGEEDTIRQKPNVERMKLLGAKVVPVKSGSRTLKDAINEALRDWITNLQTTYYVIGSVVGPHPYPIIVRNFQKVIGEETKKQILEKEGRLPDYIVACVGGGSNAAGIFYPFIDSGVKLIGVEAGGEGLETGKHAASLLKGKIGYLHGSKTFVLQDDWGQVQVTHSVSAGLDYSGVGPEHAYWRETGKVLYDAVTDEEALDAFIELSRLEGIIPALESSHALAYLKKINIKGKVVVVNLSGRGDKDLESVLNHPYVRERIRLEHHHHHH
For B4, the Km in data set [4] amounted to 44 µM.

B5: Escherichia coli TrpB variant M149T N171D (Table 6 prints N171T), parent SEQ ID NO: 8, variant SEQ ID NO: 40 (Escherichia coli K-12; M149T/N171D) (protein)
chain: MTTLLNPYFGEFGGMYVPQILMPALRQLEEAFVSAQKDPEFQAQFNDLLKNYAGRPTALTKCQNITAGTNTTLYLKREDLLHGGAHKTNQVLGQALLAKRMGKTEIIAETGAGQHGVASALASALLGLKCRIYMGAKDVERQSPNVFRTRLMGAEVIPVHSGSATLKDACDEALRDWSGSYETAHYMLGTAAGPHPYPTIVREFQRMIGEETKAQILEREGRLPDAVIACVGGGSNAIGMFADFINETNVGLIGVEPGGHGIETGEHGAPLKHGRVGIYFGMKAPMMQTEDGQIEESYSISAGLDFPSVGPQHAYLNSTGRADYVSITDDEALEAFKTLCLHEGIIPALESSHALAHALKMMRENPDKEQLLVVNLSGRGDKDIFTVHDILKARGEILEHHHHHH
Consider B5, for which the Km in data set [5] stood at 18 µM.

B6: Archaeoglobus fulgidus tryptophan synthase beta-subunit AfTrpB, wild type, SEQ ID NO: 4 (Archaeoglobus fulgidus DSM 4304) (protein)
chain: MRCWLENLSGGRKMKFGEFGGRFVPEVLIPPLEELEKAYDRFKDDEEFKARLEYYLKSYAGRPTPLYFAENLSRELGVKIYLKREDLLHGGAHKINNTIGQALLAKFMGKKRVIAETGAGQHGVATAMAAALLGLEAEIYMGAEDYERQKMNVFRMELLGAKVTAVESGSRTLKDAINEALRDWVESFEHTHYLIGSVVGPHPFPTIVRDFQAVIGKEARRQIIEAEGGMPDAIIACVGGGSNAMGIFHPFLNDDVRLIGVEAGGEGIESGRHSASLTAGSKGVLHGMLSYFLQDEEGMMLDTHSVSAGLDYPGVGPEHAYLKETGRCEYVTVNDEEALRAFKTLSKLEGIIPALESAHAIAYAMKMAEEMQRDDVLVVNLSGRGDKDMDIVRRRLALEHHHHHH
As for B6, in data set [6], the Michaelis-Menten constant (Km) was found to be 12 µM.

B7: Archaeoglobus fulgidus TrpB variant M156T N178D (Table 6 prints N178T), SEQ ID NO: 24 (Archaeoglobus fulgidus DSM 4304; M156T/N178D) (protein)
chain: MRCWLENLSGGRKMKFGEFGGRFVPEVLIPPLEELEKAYDRFKDDEEFKARLEYYLKSYAGRPTPLYFAENLSRELGVKIYLKREDLLHGGAHKINNTIGQALLAKFMGKKRVIAETGAGQHGVATAMAAALLGLEAEIYMGAEDYERQKMNVFRTELLGAKVTAVESGSRTLKDAIDEALRDWVESFEHTHYLIGSVVGPHPFPTIVRDFQAVIGKEARRQIIEAEGGMPDAIIACVGGGSNAMGIFHPFLNDDVRLIGVEAGGEGIESGRHSASLTAGSKGVLHGMLSYFLQDEEGMMLDTHSVSAGLDYPGVGPEHAYLKETGRCEYVTVNDEEALRAFKTLSKLEGIIPALESAHAIAYAMKMAEEMQRDDVLVVNLSGRGDKDMDIVRRRLALEHHHHHH
As for B7, the Km in data set [7] was 11 µM.
